Laboratory results: the supplement of paper PMC7125110
± gives the standard error. This sample holds only a part of the variants without activity.

B1: glmS ribozyme (parent)
chain: AUAAAAGCGCCAGAACUACAGAAAUGUAGUUGACGAGGAGGAGGUUUAUCGAAUUUUCGGCGGAUGCCUCCAAA

Assays:
Details in all cases: with glucosamine-6-phosphate
glucosamine-6-phosphate [1] = variants of: B1; assay: self-cleavage kobs at 160 uM GlcN6P; higher = faster cleavage; RNA array
Method in brief: (§1)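 On sequenced MiSeq chips, barcoded ribozyme variants were made in situ by E. coli RNA polymerase and followed at 37 °C through a hybridised Cy3 probe. Glucosamine-6-phosphate was flowed in at 40 μM to 10 mM in HEPES/KCl/Mg(OAc)2 buffer. Exponential fits to normalised per-tile medians gave kobs, and weighted Michaelis–Menten fits gave kcat and KM.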

glucosamine-6-phosphate [2] = variants of: B1; assay: self-cleavage kobs at 640 uM GlcN6P; higher = faster cleavage; RNA array
Method in brief: as §1

glucosamine-6-phosphate [3] = variants of: B1; assay: self-cleavage kobs at 2500 uM GlcN6P; higher = faster cleavage; RNA array
Method in brief: as §1

glucosamine-6-phosphate [4] = variants of: B1; assay: self-cleavage kobs at 10000 uM GlcN6P; higher = faster cleavage; RNA array
Method in brief: as §1

Row | Variant | self-cleavage kobs at 160 uM GlcN6P (glucosamine-6-phosphate [1]) [s⁻¹] | self-cleavage kobs at 640 uM GlcN6P (glucosamine-6-phosphate [2]) [s⁻¹] | self-cleavage kobs at 2500 uM GlcN6P (glucosamine-6-phosphate [3]) [s⁻¹] | self-cleavage kobs at 10000 uM GlcN6P (glucosamine-6-phosphate [4]) [s⁻¹]
1 | G13A A42U | < 1e-05 | < 1e-05 | – | –
2 | U31C U54C C67U | 8.1e-05 ± 1.6e-05 | 0.000176 ± 3.7e-05 | 0.000804 ± 0.0002 | –
3 | C16U A42U C67G | 6.07e-05 ± 1.8e-05 | 0.000203 ± 6.8e-05 | 0.000631 ± 0.00021 | –
4 | G13U G29A A52C | < 1e-05 | < 1e-05 | < 1e-05 | –
5 | A14U U57C G66U | < 1e-05 | – | – | –
6 | U31G U45C C67G | 0.000177 ± 7.3e-05 | – | 0.00223 ± 0.0006 | –
7 | A14U A15C A48C U56A C67A | < 1e-05 | – | – | –
8 | A12G G35U G51U C68G U69A | < 1e-05 | < 1e-05 | – | –
9 | G13U U31A C34A A48C G62U | < 1e-05 | – | – | –
10 | G13U G29A G66C | < 1e-05 | – | – | –
11 | U30C U69A | 5.29e-05 ± 1.5e-05 | 0.000111 ± 3e-05 | 5.71e-05 ± 1.2e-05 | 2.76e-05 ± 6.9e-06
12 | A14G A39C G40U U46A A53C | < 1e-05 | – | < 1e-05 | –
13 | A14U G43U U46A | < 1e-05 | < 1e-05 | < 1e-05 | –
14 | A12G G40A A42C | < 1e-05 | – | < 1e-05 | –
15 | U31G G44U G51U | < 1e-05 | – | – | –
16 | G29C U31C A33C A36C A53U | < 1e-05 | – | < 1e-05 | –
17 | A12U U30C | 0.000652 ± 0.00019 | 0.00125 ± 0.00032 | 0.0109 ± 0.0027 | –
18 | U30C G62A C68G | < 1e-05 | < 1e-05 | < 1e-05 | < 1e-05
19 | A12U U56G G66C | 0.000132 ± 3.1e-05 | 0.000374 ± 9e-05 | 0.000708 ± 0.00017 | –

Row | Variant | self-cleavage kobs at 160 uM GlcN6P (glucosamine-6-phosphate [1]) [s⁻¹] | self-cleavage kobs at 640 uM GlcN6P (glucosamine-6-phosphate [2]) [s⁻¹] | self-cleavage kobs at 2500 uM GlcN6P (glucosamine-6-phosphate [3]) [s⁻¹] | self-cleavage kobs at 10000 uM GlcN6P (glucosamine-6-phosphate [4]) [s⁻¹]
20 | A12U C58A G60U | < 1e-05 | < 1e-05 | – | –
21 | A14C G35A | < 1e-05 | < 1e-05 | < 1e-05 | < 1e-05
22 | A12U A33C A39G C50G A52G | < 1e-05 | < 1e-05 | – | –
23 | A12U G32A G37A U45A | < 1e-05 | – | – | –
24 | G13A G35A G41U C68U | < 1e-05 | < 1e-05 | < 1e-05 | –
25 | U31A C34A U55A C67G | < 1e-05 | < 1e-05 | < 1e-05 | –
26 | A14G U31G G41C | < 1e-05 | < 1e-05 | – | 6.26e-05 ± 2.5e-05
27 | C16G G29C A33U A48C | < 1e-05 | < 1e-05 | – | –
28 | A14C A15U C70A | 0.000105 ± 3.4e-05 | 0.000263 ± 5.6e-05 | 0.000232 ± 8.4e-05 | –
29 | C16U A33G C34A A39G | < 1e-05 | < 1e-05 | – | –
30 | G29U G32U A64U | < 1e-05 | – | – | –
31 | G32A A42U | < 1e-05 | < 1e-05 | – | –
32 | A15G C58A C70U | 0.000138 ± 2.8e-05 | 8.95e-05 ± 1.1e-05 | 0.000182 ± 4.8e-05 | 0.000281 ± 5.3e-05
33 | U31A C50G | 0.000119 ± 2.4e-05 | 0.000349 ± 0.00014 | 0.000577 ± 0.00022 | –
34 | A15G C58G G63C C68G | 0.000162 ± 4.4e-05 | – | – | –
35 | A15C A39U U47A U54G | 4.07e-05 ± 1.7e-05 | 0.000184 ± 4.1e-05 | 0.000635 ± 8.5e-05 | –
36 | G13A C58G G59U | < 1e-05 | – | – | –
37 | G29U G32C A36G | < 1e-05 | < 1e-05 | – | –
38 | U31G U49C C67U | < 1e-05 | – | – | –

Row | Variant | self-cleavage kobs at 160 uM GlcN6P (glucosamine-6-phosphate [1]) [s⁻¹] | self-cleavage kobs at 640 uM GlcN6P (glucosamine-6-phosphate [2]) [s⁻¹] | self-cleavage kobs at 2500 uM GlcN6P (glucosamine-6-phosphate [3]) [s⁻¹] | self-cleavage kobs at 10000 uM GlcN6P (glucosamine-6-phosphate [4]) [s⁻¹]
39 | U30C G40U U65G | < 1e-05 | – | – | –
40 | C16A G41A U56G | < 1e-05 | < 1e-05 | – | –
41 | G29A C50A A53C | < 1e-05 | – | – | –
42 | A14U G43U G51C | < 1e-05 | – | – | –
43 | C16U G40C C50A C67G | < 1e-05 | < 1e-05 | – | –
44 | G13U A15U G44A | < 1e-05 | < 1e-05 | < 1e-05 | –
45 | U30G A39U G60U | < 1e-05 | – | < 1e-05 | –
46 | A14G U56A C67A | 0.00127 ± 0.00033 | 0.00567 ± 0.0018 | 0.00817 ± 0.0024 | –
47 | G29A G32A G62U | < 1e-05 | – | – | –
48 | A14C A36C U65G | < 1e-05 | < 1e-05 | < 1e-05 | –
49 | U31C C34U C71U | < 1e-05 | < 1e-05 | < 1e-05 | –
50 | A15C A53C C68U | < 1e-05 | – | – | –
51 | U30G G37U | < 1e-05 | < 1e-05 | – | < 1e-05
52 | G13A A39G C68A | < 1e-05 | – | – | –
53 | C16A G37C G59C | < 1e-05 | < 1e-05 | – | –
54 | C16U C58U | < 1e-05 | – | 2.45e-05 ± 6.4e-06 | 9.48e-05 ± 8.5e-06
55 | A14U U30C G43C G66C | < 1e-05 | – | – | –
56 | A12G G40U G62C | < 1e-05 | < 1e-05 | < 1e-05 | –
